Test results: publication PMC4569318 (Molecular Biology of the Cell, 2015)
Positions count from the first letter of the chain named. One block for each binder: values may come before it.

Legend:
Sro7-D361K = biological target: T1, Sro7-D361K (S. cerevisiae, UniProt Q12038 1-1033, D361K); test: pull-down
T1 sequence: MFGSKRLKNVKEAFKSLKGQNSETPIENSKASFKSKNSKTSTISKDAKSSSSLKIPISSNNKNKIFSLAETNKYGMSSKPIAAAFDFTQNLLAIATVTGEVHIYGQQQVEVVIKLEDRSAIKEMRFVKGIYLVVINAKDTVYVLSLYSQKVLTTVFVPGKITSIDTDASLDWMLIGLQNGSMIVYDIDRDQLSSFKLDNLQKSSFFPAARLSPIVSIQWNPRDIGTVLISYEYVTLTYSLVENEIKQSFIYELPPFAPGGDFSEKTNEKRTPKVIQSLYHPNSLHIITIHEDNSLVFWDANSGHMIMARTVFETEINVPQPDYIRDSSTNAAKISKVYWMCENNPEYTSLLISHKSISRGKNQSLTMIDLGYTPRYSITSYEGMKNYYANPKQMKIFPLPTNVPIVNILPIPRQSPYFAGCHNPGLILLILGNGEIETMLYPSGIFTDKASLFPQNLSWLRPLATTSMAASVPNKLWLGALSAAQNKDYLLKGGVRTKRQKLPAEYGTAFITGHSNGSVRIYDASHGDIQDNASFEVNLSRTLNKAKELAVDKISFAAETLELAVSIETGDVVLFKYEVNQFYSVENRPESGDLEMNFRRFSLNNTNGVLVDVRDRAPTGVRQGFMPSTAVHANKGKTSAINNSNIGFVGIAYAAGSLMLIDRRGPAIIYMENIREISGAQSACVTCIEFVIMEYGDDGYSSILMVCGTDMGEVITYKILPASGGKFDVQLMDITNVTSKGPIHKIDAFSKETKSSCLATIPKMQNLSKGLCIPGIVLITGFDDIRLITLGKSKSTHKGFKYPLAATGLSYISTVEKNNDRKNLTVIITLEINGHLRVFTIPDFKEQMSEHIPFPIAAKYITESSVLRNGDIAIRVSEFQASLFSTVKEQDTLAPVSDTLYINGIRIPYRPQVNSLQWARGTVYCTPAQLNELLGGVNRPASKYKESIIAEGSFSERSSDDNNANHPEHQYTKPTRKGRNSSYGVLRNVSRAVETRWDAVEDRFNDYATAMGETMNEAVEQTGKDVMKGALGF

[1] = biological target: T2, Sro7 (wild type, full length) (S. cerevisiae, UniProt Q12038 1-1033); test: pull-down
T2 sequence: T1 sequence with K361D

binding result (Sro7-D361K): binds | binding result [1]: binds
B1: GST-Sec4 (wild type) (natural protein)
chain: MSGLRTVSASSGNGKSYDSIMKILLIGDSGVGKSCLLVRFVEDKFNPSFITTIGIDFKIKTVDINGKKVKLQLWDTAGQERFRTITTAYYRGAMGIILVYDVTDERTFTNIKQWFKTVNEHANDEAQLLLVGNKSDMETRVVTADQGEALAKELGIPFIESSAKNDDNVNEIFFTLAKLIQEKIDSNKLVGVGNGKEGNISINSGSGNSSKSNCC

binding result [1]: binds
B2: GST-Sec9 (full length) (natural protein)
chain: MGLKKFFKIKPPEEATPEQNKDTLMELGISVKNPSKKRKEKFAAYGKFANDKAEDKVYAPPGYEQYARPQDELEDLNASPLDANANEATAGSNRGSSGTQDLGNGAESNSMQDPYAIENDDYRYDDDPYARFQANKSNGRGSVNAAPYGDYGGGYNGTSLNSYNNDGPYSNQNTSNSWVNANGRNSLNHSNSTLNVGPSRQTRQPPVSTSTNSLSLDQRSPLANPMQEKRNPYADMNSYGGAYDSNTNRSSGTRQGSSKNANPYASMANDSYSNGNLNRSANPYSSRSVRQPQSQQAPMTYTPSFIASDEAARNSEVDLNEEPRTGEFDFEEVYADKSAENRAALDEPDLNAVMTNEDSIDLNASEVDHSSRQQQQQQWFMDEQQQQQQHFNATNNQYGDQRGYKTFEEIQKEEEARQQQEEDEAVDEIKQEIKFTKQSSVASTRNTLKMAQDAERAGMNTLGMLGHQSEQLNNVEGNLDLMKVQNKVADEKVAELKKLNRSILAVHVSNPFNSKRRRREREEQLKNRKIEEKLMREQTSQQLSQSTQRIEGAMNANNNISEVRERYQRKNVLEKAKRYQFENDEEDDEMELEIDRNLDQIQQVSNRLKKMALTTGKELDSQQKRLNNIEESTDDLDINLHMNTNRLAGIR
